Results: patent publication US20260000781A1 (CIDARA THERAPEUTICS, published 2026)

Legend:
[1] = molecular target: T1, human CD73 expressed on cells (human, UniProt P21589 27-549); assay: cell-based or functional assay
T1 sequence (looked up): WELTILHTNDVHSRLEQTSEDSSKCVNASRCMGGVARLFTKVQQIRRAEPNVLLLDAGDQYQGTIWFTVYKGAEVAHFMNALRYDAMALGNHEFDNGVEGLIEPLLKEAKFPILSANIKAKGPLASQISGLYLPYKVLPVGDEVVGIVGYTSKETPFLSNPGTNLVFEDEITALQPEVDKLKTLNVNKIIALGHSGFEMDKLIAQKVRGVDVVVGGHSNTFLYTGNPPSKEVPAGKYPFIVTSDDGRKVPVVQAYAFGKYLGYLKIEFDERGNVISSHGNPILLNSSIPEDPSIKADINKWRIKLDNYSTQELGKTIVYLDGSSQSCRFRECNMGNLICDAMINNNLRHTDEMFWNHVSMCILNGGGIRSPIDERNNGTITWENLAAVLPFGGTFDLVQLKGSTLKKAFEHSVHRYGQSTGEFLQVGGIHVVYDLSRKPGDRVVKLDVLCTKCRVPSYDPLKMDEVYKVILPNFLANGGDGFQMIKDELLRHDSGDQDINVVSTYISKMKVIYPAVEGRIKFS

[2] = molecular target: T1, human CD73 expressed on cells; assay: cell-based or functional assay; remark: listed apart in the source
[3] = molecular target: T1, human CD73 expressed on cells; assay: cell-based or functional assay; remark: listed apart in the source
[4] = molecular target: T1, human CD73 expressed on cells; assay: cell-based or functional assay; remark: listed apart in the source
[5] = molecular target: T1, human CD73 expressed on cells; assay: cell-based or functional assay; remark: listed apart in the source
[6] = molecular target: T2, mouse CD73 expressed on cells (mouse, UniProt Q61503 29-551); assay: cell-based or functional assay
T2 sequence (looked up): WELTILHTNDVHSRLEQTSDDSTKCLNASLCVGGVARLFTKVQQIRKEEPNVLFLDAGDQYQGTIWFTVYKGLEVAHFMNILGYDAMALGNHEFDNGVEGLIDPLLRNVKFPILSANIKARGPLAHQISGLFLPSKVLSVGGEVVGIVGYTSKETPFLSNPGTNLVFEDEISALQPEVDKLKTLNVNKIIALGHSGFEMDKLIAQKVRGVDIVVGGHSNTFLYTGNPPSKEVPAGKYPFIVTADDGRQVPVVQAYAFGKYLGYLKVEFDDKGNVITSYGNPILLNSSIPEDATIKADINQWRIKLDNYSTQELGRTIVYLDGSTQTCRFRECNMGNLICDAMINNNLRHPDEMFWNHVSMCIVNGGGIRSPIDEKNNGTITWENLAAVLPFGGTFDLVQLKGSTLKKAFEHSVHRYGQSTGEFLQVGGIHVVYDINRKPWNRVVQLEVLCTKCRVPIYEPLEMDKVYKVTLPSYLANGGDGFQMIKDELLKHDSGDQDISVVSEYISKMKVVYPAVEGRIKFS

[7] = molecular target: T2, mouse CD73 expressed on cells; assay: cell-based or functional assay; remark: listed apart in the source
[8] = molecular target: T3, Enzymatically active His-tagged human CD73/NT5E protein (human, UniProt P21589 27-547); assay: SPR (Biacore 8K), His-tagged human CD73 captured by anti-His antibody, mAb as analyte
T3 construct: Bought protein; also called human CD73/NT5E protein, His-tag (Acro Biosystems cat CD3-H52H7); not shown: His-tag
T3 sequence (looked up): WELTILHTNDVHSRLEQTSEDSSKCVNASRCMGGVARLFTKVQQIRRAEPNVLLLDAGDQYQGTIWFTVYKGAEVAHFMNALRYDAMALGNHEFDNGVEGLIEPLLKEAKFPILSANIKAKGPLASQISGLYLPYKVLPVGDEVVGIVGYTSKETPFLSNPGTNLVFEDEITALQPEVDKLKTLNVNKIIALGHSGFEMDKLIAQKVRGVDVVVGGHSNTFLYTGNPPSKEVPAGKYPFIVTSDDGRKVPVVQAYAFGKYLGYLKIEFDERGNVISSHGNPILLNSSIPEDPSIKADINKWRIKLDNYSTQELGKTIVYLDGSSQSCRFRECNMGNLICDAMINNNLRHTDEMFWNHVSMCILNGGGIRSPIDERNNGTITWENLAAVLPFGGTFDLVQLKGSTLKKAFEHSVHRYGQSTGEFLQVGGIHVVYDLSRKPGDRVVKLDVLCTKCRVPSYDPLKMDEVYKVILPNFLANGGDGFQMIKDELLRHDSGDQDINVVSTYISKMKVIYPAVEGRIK

[9] = molecular target: T1, human CD73 expressed on cells; assay: cell-based or functional assay; remark: listed apart in the source
[10] = molecular target: T1, human CD73 expressed on cells; assay: cell-based or functional assay; remark: listed apart in the source
[11] = molecular target: T1, human CD73 expressed on cells; assay: cell-based or functional assay; remark: listed apart in the source
[12] = molecular target: T1, human CD73 expressed on cells; assay: cell-based or functional assay; remark: listed apart in the source

Binder	cell-based CD73 enzyme inhibition IC50 (MDA-MB-231 cells) [1]	Cell-based CD73 inhibition IC50 (nM), MDA-MB-231 cells [2]	inhibition of adenosine production (AMP conversion by CellTiter-Glo), human PBMCs, EC50 [nM] [3]	CD73 inhibition, human PBMCs, 3 h IC50 [nM] [4]	CD73 inhibition, human PBMCs, 24 h IC50 [nM] [4]	PBMC activation, CD8+CD25+ EC50 [nM] [5]	PBMC activation, CD8+granzyme B+ EC50 [nM] [5]	CD73 inhibition, mouse EMT6 cells, 3 h IC50 [nM] [6]	CD73 inhibition, mouse EMT6 cells, 24 h IC50 [nM] [6]	CD73 inhibition, mouse 4T1 cells, 3 h IC50 [nM] [7]	CD73 inhibition, mouse 4T1 cells, 24 h IC50 [nM] [7]	Kd [8]	PBMC activation, CD4+CD25+ EC50 [nM] (median, n = 3) [9]	PBMC activation, CD8+CD25+ EC50 [nM] (median, n = 3) [9]	PBMC activation, CD8+Granzyme B+ EC50 [nM] (median, n = 3) [9]	CD73 inhibition, human PBMCs, 3 h median IC50 [nM] [10]	CD73 inhibition, human PBMCs, 24 h median IC50 [nM] [10]	PBMC activation (CD25+), 30 µM AMP EC50 [nM] [11]	Cell internalization EC50 (nM), Fab-ZAP saporin assay, MDA-MB-231 [12]
Oleclumab (antibody, V domains shown) VH: EVQLLESGGGLVQPGGSLRLSCAASGFTFSSYAYSWVRQAPGKGLEWVSAISGSGGRTYYADSVKGRFTISRDNSKNTLYLQMNSLRAEDTAVYYCARLGYGRVDEWGRGTLVTVSS VL: QSVLTQPPSASGTPGQRVTISCSGSLSNIGRNPVNWYQQLPGTAPKLLIYLDNLRLSGVPDRFSGSKSGTSASLAISGLQSEDEADYYCATWDDSHPGWTFGGGTKLTVL	0.11 nM	0.67 nM	288 nM	0.56 nM	> 100 nM	> 1000 nM	> 1000 nM	5.68 nM	> 100 nM	> 100 nM	> 100 nM	0.527 nM	> 1000 nM	> 1000 nM	> 1000 nM	7.26 nM	89.4 nM	> 1000 nM	0.02 nM
Mupadolimab (antibody, V domains shown) VH: QVQLVQSGAEVEKPGASVKVSCKASGYTFTSYWITWVRQAPGQGLEWMGDIYPGSGNTNYNEKFKTRVTITADKSTSTAYMELSSLRSEDTAVYYCAKEGGLTTEDYALDYWGQGTLVTVSS VL: EIVLTQSPATLSLSPGERATLSCRASKNVSTSGYSYMHWYQQKPGQAPRLLIYLASNLESGIPPRFSGSGYGTDFTLTINNIESEDAAYYFCQHSRELPFTFGQGTKVEIK								> 100 nM	> 100 nM	> 100 nM	> 100 nM	123 nM							
